Drawing on publication PMC7984254 (Biochimica et biophysica acta. Molecular cell research, 2020), this text covers koff and kon for one molecule.

The assay has as its target recombinant FGF14 protein (aa 64–252) (human, UniProt Q92915-2 64-252). Put plainly: SPR. In general terms: SPR reads the build-up and loss of mass on a sensor chip optically.

What is called koff is a measure of how fast the partners let go of each other. As usually defined, the kon is the rate constant with which the complex forms. In the case of KFKESVFENAYVIYSSMLYR (peptide, UniProt Q92915-2 149-168, looked up) [FGF14^Y158A mutant peptide], the koff is 0.158 s⁻¹ and the kon is 23200 M⁻¹ s⁻¹.
